Test [1] has as its system S100A12, HBP17, K16, CCNF, SCYA2, PRKMK3, ID4, CST6 and TNXA mRNA. The experiment in a line: Quantitative RT-PCR of early responding genes in treated patients. In kind it is in vivo, human. The conditions noted are these: responding patients but not non-responding patients. On the procedure: Quantitative RT-PCR was performed as previously described (Trepicchio et al., supra). RNA samples from patient biopsies were treated with 10U of RQ1 DNase I (Promega) for 30 minutes at 37° C. […] Sequence-specific amplification was detected as an increased fluorescent signal of 6-FAM during the amplification cycle. Quantitation of gene-specific message levels was based on a comparison of the fluorescent intensity in the unknown mRNA sample to the fluorescent intensity from a standard curve of known mRNA levels. […] Levels of gene-specific messages were graphed as normalized message units as determined from the standard curve. […]
Quantitative measures of gene expression changes were statistically evaluated using the JMP statistical discovery software package (SAS Institute, Inc., Cary, N.C.). […] Differences between non-lesional to lesional skin were analyzed using 2-tailed paired T-test. […]
Changes in gene expression levels that precede clinical improvement may identify genes that play a potential causative role in disease progression or may be early markers of clinical efficacy. Quantitative RT-PCR was used to analyze gene expression changes for these early responding genes in a larger patient population. […]

The test system of test [2] is plaque psoriasis. The experiment in a line: Response to therapy by clinical and histopathological criteria (Example 4). The format is in vivo, human. The conditions noted are these: treated for 8 weeks.
Description: (§1) Patients with extensive plaque psoriasis (>10% body surface area affected) were considered eligible for entry into the study. […] At the start of enrollment, a psoriatic plaque was chosen for weekly assessment of lesion severity scores by the study coordinator. A 6 mm punch biopsy was taken of this lesional skin prior to rhIL-11 or cyclosporin treatment and at weeks 1, 4, 8 and 12 during IL-11 or cyclosporin treatment. In addition, prior to initiation of treatment, a 6 mm punch biopsy was taken from uninvolved skin at a location of the patient's choosing. Biopsies were equally divided for immunohistochemical analysis and for RNA preparation. Normal skin was obtained from healthy volunteers.
Sections were reacted with antibodies to CD3, CD8, keratin 16, Ki67, ICAM-1, or HLA-DR and processed for immunohistochemistry as previously described (Trepicchio et al., supra). Computer-assisted image analysis was used to quantify epidermal thickness and the number of CD3+, CD8+, or Ki67+ cells in tissue sections as described. The grading system used to measure clinical disease activity was the PSI score, described above.
RhIL-11 was administered to patients by a subcutaneous route at either a dose of 5 ug/kg/day or a single 1 mg or 2 mg dose administered once weekly. Cyclopsorin A was administered at a dose of 5 μg/kg/day (Gottlieb et al., supra).
The subject of test [3] is 165 genes differentially expressed between lesional and non-lesional skin. The experiment in a line: Gene chip / self-organizing map analysis of lesional skin over the course of drug treatment (Example 4). In kind it is in vivo, human.
Description: as §1
Total RNA was isolated from 6 mm full thickness skin biopsies using the RNeasy mini kit (Qiagen, Hilden, Germany). 2 μg total RNA was converted to cDNA by priming with an oligo-dT primer containing a T7 RNA polymerase promoter at the 5′ end. RNA was reverse transcribed with 200 units Superscript RT II at 50° C. for 1 hour in 1×first-strand buffer, 10 mM DTT and 0.5 mM each dNTP (Gibco BRL, Gaithersburg, Md.). […] RNA was concentrated and the amount measured using a spectrophotometer. […]
Test [4] has as its system psoriatic plaque. The experiment in a line: Psoriasis Severity Index (PSI) score at the lesion biopsy site during treatment (Example 3). The format is in vivo, human. The conditions noted are these: for PSI score: seen at weeks 8 and 12. Here is the method:
Three subjects with extensive psoriasis (>10% body surface area affected) were treated with […] of rhIL-11 subcutaneously every day for 8 weeks (Trepicchio et al. (1999) J. Clin. Invest. 104:1527-1537). The dose selection of rhIL-11 was based on the outcome of a clinical trial in subjects with Crohn's disease, where biological activity was observed. […] Upon enrollment, a psoriatic plaque was chosen for weekly assessment of lesion severity. […] In addition, before initiation of treatment, a 6-mm punch biopsy was taken from uninvolved skin at a location of the patent's choosing. Biopsies were equally divided for immunohistochemical analysis and for RNA preparation. Global clinical assessment of each subject was based on the Psoriasis Area and Severity Index (PASI) score in each subject before and during therapy as described previously (Gottlieb, et al. (1992) J. Invest. Dermatol. 98:302-309). The grading system used to measure local disease activity at the lesion biopsy site was the Psoriasis Severity Index (PSI). This index grades individual psoriasis lesions for scale, erythema, and induration on a 0- to 6- point scale for each parameter (0, absent, 1, trace, 2, mild, 3, mild to moderate, 4, moderate, 5, moderate to severe, and 6, severe). The final score is the sum of the individual parameters for a range of 0-18 (Fredriksson and Pettersson (1978) Dermatologica 157: 238-244; and Coven et al. (1997) Arch. Dermatol. 133:1514-1522). Histopathological assessment was performed on one-half of the 6-mm punch biopsy. […] Sections were reacted with antibodies to CD3, CD8, K16, Ki67, ICAM-1, or HLA-FR and processed for immunohistochemistry as described previously. Computer-assisted image analysis was used to quantify epidermal thickness and the number of CD3+, CD8+, or Ki67+ cells in tissue sections as described (Gottlieb et al. (1995) Nat. Med. 1:442-447).

Test [5] relates to marker genes in psoriatic lesional skin. The experiment in a line: GeneChip marker analysis of lesional skin biopsies during rhIL-11 or cyclosporin A treatment (Example 3). In kind it is in vivo, human.
Protocol: Labeled RNA was prepared from clones containing a T7 RNA polymerase promoter site by incorporating labeled ribonucleotides in an in vitro transcription (IVT) reaction. Either biotin-labeled or fluorescein-labeled UTP and CTP (1:3 labeled to unlabeled) plus unlabeled ATP and GTP were used for the reaction with 2500 U of T7 RNA polymerase. Following the reaction, unincorporated nucleotide triphosphates were removed using a size-selective membrane (Mircrocon-100, Amicon, Beverly, Mass.). The total molar concentration of RNA was based on a measurement of the absorbance at 260 nm. Following quantitation of RNA amounts, RNA was fragmented randomly to an average length of approximately 50 bases by heating at 94° C. in 40 mM Tris-acetate pH 8.1, 100 mM potassium acetate, 30 mM magnesium acetate, for 30 to 40 min. Fragmentation reduces possible interference from RNA secondary structure, and minimizes the effects of multiple interactions with closely spaced probe molecules. For material made directly from cellular RNA, cytoplasmic RNA was extracted from cells by the method of Favaloro et al. ((1980) Methods Enzymol. 65: 718-749), and poly (A) RNA was isolated with an oligo dT selection step (PolyAtract, Promega, Madison, Wis.). […] The total molar concentration of labeled cRNA was determined from the absorbance at 260 nm and assuming an average RNA size of 1000 ribonucleotides. […]
The hybridization solutions contained 0.9 M NaCl, 60 mM NaH2PO4, 6 mM EDTA, and 0.005% Triton X-100, adjusted to pH 7.6 (referred to as 6×SSPE-T). […] When biotin-labeled RNA was used, the hybridized RNA was stained with a streptavidin-phycoerythrin conjugate (Molecular Probes, Eugene, Oreg.) prior to reading. […] The arrays were read using a scanning confocal microscope made for Affy metrix by Molecular Dynamics (commercially available through Affymetrix, Santa Clara, Calif.) The scanner uses an argon ion laser as the excitation source, with the emission detected by a photomultiplier tube through either a 530 nm bandpass filter (fluorescein), or a 560 nm longpass filter (phycoerythrin). […]
The test system of test [6] is proinflammatory cytokine production. As to conditions: in part through inhibition of NF-κKB nuclear translocation; Trepicchio et al. (1997); cited from earlier work.
In test [7] the test system is psoriasis patients. The conditions noted are these: Trepicchio et al. (1999); cited from earlier work.

Data on one molecule can be found in US20020037538A1, “Compositions, kits, and methods for identification, assessment, prevention, and therapy of psoriasis” (priority 2000, published 2002).

B1: rhIL-11: recombinant human IL-11, experimental immune modulatory cytokine (protein, UniProt P20809 22-199, looked up)
Interleukin-11: PGPPPGPPRVSPDPRAELDSTVLLTRSLLADTRQLAAQLRDKFPADGDHNLDSLPTLAMSAGALGALQLPGVLTRLRADLLSYLRHVQWLRRAGGSSLKTLEPELGTLQARLDRLLRRLQLLMSRLALPQPPPDPPAPPLAPPSSAWGGIRAAHAILGGLHLTLDWAVRGLLLLKTRL
As for B1, in test [1], the “earliest time at which changes in gene expression were observed” value stood at 1 week. Further, the “patients considered to have responded to therapy” value in test [2] is on record as 8 out of 15. Besides, the “differentially regulated genes that returned to normal or uninvolved levels at time points preceding clinical improvement” value in test [3] (FIG. 6, Group I) was determined as 36 genes. In test [3] (responding patients at week 1 of therapy, not in non-responding patients), the “levels of expression of 36 genes including HBP17, SCYA2, PRKMK3, GNA15, PHB and MTX” value is listed as “change significantly”. In addition, the “response to the treatment as assessed by PSI scores” value in test [4] (Patient #202, rhIL-11) is on record as “did not respond to the treatment”. Also, the PSI scores in test [4] (Patient #202, rhIL-11 treatment, throughout the course of the study) is 9-11. Besides, the PSI score in test [4] (rhIL-11, first value of 'respectively' (Patient #203)) is 4; in test [4] (rhIL-11, second value of 'respectively' (Patient #208)), 5. Besides, the “expression levels of the bulk of the markers” value in test [5] (Patient #202, rhIL-11, throughout the study) is on record as “similarly unchanged”. The “expression of the preponderance of the markers” value in test [5] (Patients #203 and 208, rhIL-11, by week 8 compared to the beginning of the study) was “decrease in expression at least two-fold”. In addition, the “expression of the markers” value in test [5] (Patients #203 and 208, rhIL-11, by week 12 compared to the beginning of the study) was “nearly all of the markers decreased in expression”. The proinflammatory cytokine production result in test [6] is “reduce proinflammatory cytokine production”. The “activity in psoriasis patients” value in test [7] is “improve clinical and histopathological scores”.
